Source: patent publication US20230049732A1 (UNIVERSITY OF LOUISVILLE RESEARCH FOUNDATION, published 2023)

T1: VLPs of B19V genotype 3 (V9 strain VP2) (parvovirus B19 genotype 3, UniProt P07299 228-781)
T1 construct: Intact VLPs of non-mutated VP2
T1 chain: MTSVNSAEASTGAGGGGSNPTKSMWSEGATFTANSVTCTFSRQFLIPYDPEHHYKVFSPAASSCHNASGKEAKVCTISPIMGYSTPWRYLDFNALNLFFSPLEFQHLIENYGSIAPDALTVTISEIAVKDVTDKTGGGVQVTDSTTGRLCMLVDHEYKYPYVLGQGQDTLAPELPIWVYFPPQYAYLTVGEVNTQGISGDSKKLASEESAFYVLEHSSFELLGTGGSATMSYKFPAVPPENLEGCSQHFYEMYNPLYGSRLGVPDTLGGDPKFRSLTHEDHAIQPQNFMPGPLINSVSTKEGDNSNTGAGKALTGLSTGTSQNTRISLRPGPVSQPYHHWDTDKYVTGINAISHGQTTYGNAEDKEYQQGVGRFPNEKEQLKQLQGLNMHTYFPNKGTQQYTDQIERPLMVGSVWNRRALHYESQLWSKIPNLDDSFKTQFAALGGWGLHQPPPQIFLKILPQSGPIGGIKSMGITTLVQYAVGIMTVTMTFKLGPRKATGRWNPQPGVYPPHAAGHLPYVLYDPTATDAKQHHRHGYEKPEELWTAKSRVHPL


Biological target: T1, VLPs of B19V genotype 3 (V9 strain VP2)
Assay: ELISA, VLPs coated
Description: First, 96-well ELISA plates (Immunolon 2; Dynatech) were coated, either 1 h at 37° C. or overnight at 4° C., with 250 to 500 ng per well of B19V VLPs. Intact VLPs were re-suspended in PBS, and the disrupted VLPs were re-suspended in the following solution: 0.2 M NaCO₃, 0.01 M dithiothreitol, pH 7.0, to detect sequential epitopes. The plates were washed three times with PBS, then saturated with bovine albumin via PBS containing 5% bovine serum albumin (5% PBSA) for 1 h at 37° C. After washing three times, plates were then incubated with primary antibodies. Primary antibodies used were rabbit sera (at 1/1000), mouse sera (1/100 dilution) to B19V VLPs, or supernatant of hybridoma cells without dilution for 1 h at 37° C. Thereafter, plates were washed thrice with PBS, then incubated with alkaline phosphatase-conjugated secondary antibodies, with either goat anti-mouse or anti-rabbit IgG (H+L) (Sigma, USA) at a dilution of 1:5000 for 1 h at 37° C. After washing with PBS, bound antibodies were detected with an alkaline phosphatase chromogenic substrate (Phosphatase substrate, Sigma, USA), and absorption was measured at 405 nm. One percent PBSA and sera collected from pre-immune animals were used as negative controls. Human papillomavirus (HPV) and mouse parvovirus (MPV) VLPs were used to check the cross-reactivity of primary antibodies with other types of VLPs. All antibodies were diluted in 1% PBSA.

| Binder | ELISA absorbance (405 nm) |
| --- | --- |
| MAb #25 (antibody, V domains shown, Murine hybridoma antibody, supernatant; also called antibody 25) VH: QVQLQQPGAELVRPGASVKLSCKASGYTFTNYWMHWVKQRPEQGLEWIGRIDPYDSETHYNQKFKDKAILTVDTSSNTAYMQLSSLTSEDSAVYYCTSYYYGSNYVWHFDVWGAGTTVTVSS VL: not shown | 2.65 |
| MAb #91 (antibody, V domains shown, Murine hybridoma antibody, supernatant; also called antibody 91) VH: EVQLQQSGPELVKPGASVKISCKASGYSFTDYFMNWVKQSHGKSLEWIGRINPYNGDSFYNQNFRGSVTLTVDKSSGTAHMELLSLTSEDSTVYYCGAYRYDGYAMDYWGQGTSVTVSS VL: DVVMTQTPLSLPVSLGDQASISCRSSQSLVHSDGNTYLHWYLQKPGQSPKLLIYKVSNRFSGVPDRFSGSGSGTDFTLKISRVEAEDLGVYFCSQSTHVPFTFGSGTKLEIK | 3.05 |
